Reference: publication PMC11574045, “A cofactor-induced repressive type of transcription factor condensation can be induced by synthetic peptides to suppress tumorigenesis” (The EMBO Journal, 2024)

B1: GTF2IRD1 (protein, UniProt Q9UHL9 1-959, looked up)
General transcription factor …: MALLGKRCDVPTNGCGPDRWNSAFTRKDEIITSLVSALDSMCSALSKLNAEVACVAVHDESAFVVGTEKGRMFLNARKELQSDFLRFCRGPPWKDPEAEHPKKVQRGEGGGRSLPRSSLEHGSDVYLLRKMVEEVFDVLYSEALGRASVVPLPYERLLREPGLLAVQGLPEGLAFRRPAEYDPKALMAILEHSHRIRFKLKRPLEDGGRDSKALVELNGVSLIPKGSRDCGLHGQAPKVPPQDLPPTATSSSMASFLYSTALPNHAIRELKQEAPSCPLAPSDLGLSRPMPEPKATGAQDFSDCCGQKPTGPGGPLIQNVHASKRILFSIVHDKSEKWDAFIKETEDINTLRECVQILFNSRYAEALGLDHMVPVPYRKIACDPEAVEIVGIPDKIPFKRPCTYGVPKLKRILEERHSIHFIIKRMFDERIFTGNKFTKDTTKLEPASPPEDTSAEVSRATVLDLAGNARSDKGSMSEDCGPGTSGELGGLRPIKIEPEDLDIIQVTVPDPSPTSEEMTDSMPGHLPSEDSGYGMEMLTDKGLSEDARPEERPVEDSHGDVIRPLRKQVELLFNTRYAKAIGISEPVKVPYSKFLMHPEELFVVGLPEGISLRRPNCFGIAKLRKILEASNSIQFVIKRPELLTEGVKEPIMDSQGTASSLGFSPPALPPERDSGDPLVDESLKRQGFQENYDARLSRIDIANTLREQVQDLFNKKYGEALGIKYPVQVPYKRIKSNPGSVIIEGLPPGIPFRKPCTFGSQNLERILAVADKIKFTVTRPFQGLIPKPDEDDANRLGEKVILREQVKELFNEKYGEALGLNRPVLVPYKLIRDSPDAVEVTGLPDDIPFRNPNTYDIHRLEKILKAREHVRMVIINQLQPFAEICNDAKVPAKDSSIPKRKRKRVSEGNSVSSSSSSSSSSSSNPDSVASANQISLVQWPMYMVDYAGLNVQLPGPLNY
B2: HES1 (protein, UniProt Q14469 1-280, looked up)
Transcription factor HES-1: MPADIMEKNSSSPVAATPASVNTTPDKPKTASEHRKSSKPIMEKRRRARINESLSQLKTLILDALKKDSSRHSKLEKADILEMTVKHLRNLQRAQMTAALSTDPSVLGKYRAGFSECMNEVTRFLSTCEGVNTEVRTRLLGHLANCMTQINAMTYPGQPHPALQAPPPPPPGPGGPQHAPFAPPPPLVPIPGGAAPPPGGAPCKLGSQAGEAAKVFGGFQVVPAPDGQFAFLIPNGAFAHSGPVIPVYTSNSGTSVGPNAVSPSSGPSLTADSMWRPWRN
B3: HES3 (protein, UniProt Q61657 1-175, looked up)
Transcription factor HES-3: MEKKRRARINVSLEQLRSLLERHYSHQIRKRKLEKADILELSVKYMRSLQNSLQGLWPVPSGVDYPSGFQGGLRGVSQRLRPGEGDSGLRCPLLLQRREGSTTDSANPQATSVLNPCLPAIWAPSRAAGGSHSPQSPLPLPGGLLESSTDVVAPHPASNCQAESTRPGFRVWRPW
B4: APBB1 (protein, UniProt O00213 1-710, looked up)
Amyloid beta precursor …: MSVPSSLSQSAINANSHGGPALSLPLPLHAAHNQLLNAKLQATAVGPKDLRSAMGEGGGPEPGPANAKWLKEGQNQLRRAATAHRDQNRNVTLTLAEEASQEPEMAPLGPKGLIHLYSELELSAHNAANRGLRGPGLIISTQEQGPDEGEEKAAGEAEEEEEDDDDEEEEEDLSSPPGLPEPLESVEAPPRPQALTDGPREHSKSASLLFGMRNSAASDEDSSWATLSQGSPSYGSPEDTDSFWNPNAFETDSDLPAGWMRVQDTSGTYYWHIPTGTTQWEPPGRASPSQGSSPQEESQLTWTGFAHGEGFEDGEFWKDEPSDEAPMELGLKEPEEGTLTFPAQSLSPEPLPQEEEKLPPRNTNPGIKCFAVRSLGWVEMTEEELAPGRSSVAVNNCIRQLSYHKNNLHDPMSGGWGEGKDLLLQLEDETLKLVEPQSQALLHAQPIISIRVWGVGRDSGRERDFAYVARDKLTQMLKCHVFRCEAPAKNIATSLHEICSKIMAERRNARCLVNGLSLDHSKLVDVPFQVEFPAPKNELVQKFQVYYLGNVPVAKPVGVDVINGALESVLSSSSREQWTPSHVSVAPATLTILHQQTEAVLGECRVRFLSFLAVGRDVHTFAFIMAAGPASFCCHMFWCEPNAASLSEAVQAACMLRYQKCLDARSQASTSCLPAPPAESVARRVGWTVRRGVQSLWGSLKPKRLGAHTP
B5: HELT (protein, UniProt A6NFD8 1-242, looked up)
Hairy and enhancer of …: MSDKLKERKRTPVSHKVIEKRRRDRINRCLNELGKTVPMALAKQSSGKLEKAEILEMTVQYLRALHSADFPRGREKAELLAEFANYFHYGYHECMKNLVHYLTTVERMETKDTKYARILAFLQSKARLGAEPAFPPLGSLPEPDFSYQLHPAGPEFAGHSPGEAAVFPQGSGAGPFPWPPGAARSPALPYLPSAPVPLASPAQQHSPFLTPVQGLDRHYLNLIGHAHPNALNLHTPQHPPVL
B6: HESX (protein, UniProt Q9UBX0 1-185, looked up)
Homeobox expressed in ES …: MSPSLQEGAQLGENKPSTCSFSIERILGLDQKKDCVPLMKPHRPWADTCSSSGKDGNLCLHVPNPPSGISFPSVVDHPMPEERASKYENYFSASERLSLKRELSWYRGRRPRTAFTQNQIEVLENVFRVNCYPGIDIREDLAQKLNLEEDRIQIWFQNRRAKLKRSHRESQFLMAKKNFNTNLLE
B7: HDAC11 (protein, UniProt Q96DB2 1-347, looked up)
Histone deacetylase 11: MLHTTQLYQHVPETRWPIVYSPRYNITFMGLEKLHPFDAGKWGKVINFLKEEKLLSDSMLVEAREASEEDLLVVHTRRYLNELKWSFAVATITEIPPVIFLPNFLVQRKVLRPLRTQTGGTIMAGKLAVERGWAINVGGGFHHCSSDRGGGFCAYADITLAIKFLFERVEGISRATIIDLDAHQGNGHERDFMDDKRVYIMDVYNRHIYPGDRFAKQAIRRKVELEWGTEDDEYLDKVERNIKKSLQEHLPDVVVYNAGTDILEGDRLGGLSISPAGIVKRDELVFRMVRGRRVPILMVTSGGYQKRTARIIADSILNLFGLGLIGPESPSVSAQNSDTPLLPPAVP
B8: HES5 (protein, UniProt Q5TA89 1-166, looked up)
Transcription factor HES-5: MAPSTVAVELLSPKEKNRLRKPVVEKMRRDRINSSIEQLKLLLEQEFARHQPNSKLEKADILEMAVSYLKHSKAFVAAAGPKSLHQDYSEGYSWCLQEAVQFLTLHAASDTQMKLLYHFQRPPAAPAAPAKEPKAPGAAPPPALSAKATAAAAAAHQPACGLWRPW
B9: HAND1 (protein, UniProt O96004 1-215, looked up)
Heart- and neural crest …: MNLVGSYAHHHHHHHPHPAHPMLHEPFLFGPASRCHQERPYFQSWLLSPADAAPDFPAGGPPPAAAAAATAYGPDARPGQSPGRLEALGGRLGRRKGSGPKKERRRTESINSAFAELRECIPNVPADTKLSKIKTLRLATSYIAYLMDVLAKDAQSGDPEAFKAELKKADGGRESKRKRELQQHEGFPPALGPVEKRIKGRTGWPQQVWALELNQ
B10: HES2 (protein, UniProt Q9Y543 1-173, looked up)
Transcription factor HES-2: MGLPRRAGDAAELRKSLKPLLEKRRRARINQSLSQLKGLILPLLGRENSNCSKLEKADVLEMTVRFLQELPASSWPTAAPLPCDSYREGYSACVARLARVLPACRVLEPAVSARLLEHLWRRAASATLDGGRAGDSSGPSAPAPAPASAPEPASAPVPSPPSPPCGPGLWRPW
B11: GTF2I (protein, UniProt P78347 2-998, looked up)
General transcription factor …: AQVAMSTLPVEDEESSESRMVVTFLMSALESMCKELAKSKAEVACIAVYETDVFVVGTERGRAFVNTRKDFQKDFVKYCVEEEEKAAEMHKMKSTTQANRMSVDAVEIETLRKTVEDYFCFCYGKALGKSTVVPVPYEKMLRDQSAVVVQGLPEGVAFKHPENYDLATLKWILENKAGISFIIKRPFLEPKKHVGGRVMVTDADRSILSPGGSCGPIKVKTEPTEDSGISLEMAAVTVKEESEDPDYYQYNIQAGPSETDDVDEKQPLSKPLQGSHHSSEGNEGTEMEVPAEDSTQHVPSETSEDPEVEVTIEDDDYSPPSKRPKANELPQPPVPEPANAGKRKVREFNFEKWNARITDLRKQVEELFERKYAQAIKAKGPVTIPYPLFQSHVEDLYVEGLPEGIPFRRPSTYGIPRLERILLAKERIRFVIKKHELLNSTREDLQLDKPASGVKEEWYARITKLRKMVDQLFCKKFAEALGSTEAKAVPYQKFEAHPNDLYVEGLPENIPFRSPSWYGIPRLEKIIQVGNRIKFVIKRPELLTHSTTEVTQPRTNTPVKEDWNVRITKLRKQVEEIFNLKFAQALGLTEAVKVPYPVFESNPEFLYVEGLPEGIPFRSPTWFGIPRLERIVRGSNKIKFVVKKPELVISYLPPGMASKINTKALQSPKRPRSPGSNSKVPEIEVTVEGPNNNNPQTSAVRTPTQTNGSNVPFKPRGREFSFEAWNAKITDLKQKVENLFNEKCGEALGLKQAVKVPFALFESFPEDFYVEGLPEGVPFRRPSTFGIPRLEKILRNKAKIKFIIKKPEMFETAIKESTSSKSPPRKINSSPNVNTTASGVEDLNIIQVTIPDDDNERLSKVEKARQLREQVNDLFSRKFGEAIGMGFPVKVPYRKITINPGCVVVDGMPPGVSFKAPSYLEISSMRRILDSAEFIKFTVIRPFPGLVINNQLVDQSESEGPVIQESAEPSQLEVPATEEIKETDGSSQIKQEPDPTW
B12: HELIOS (protein, UniProt Q9UKS7 1-526, looked up)
Zinc finger protein Helios: METEAIDGYITCDNELSPEREHSNMAIDLTSSTPNGQHASPSHMTSTNSVKLEMQSDEECDRKPLSREDEIRGHDEGSSLEEPLIESSEVADNRKVQELQGEGGIRLPNGKLKCDVCGMVCIGPNVLMVHKRSHTGERPFHCNQCGASFTQKGNLLRHIKLHSGEKPFKCPFCSYACRRRDALTGHLRTHSVGKPHKCNYCGRSYKQRSSLEEHKERCHNYLQNVSMEAAGQVMSHHVPPMEDCKEQEPIMDNNISLVPFERPAVIEKLTGNMGKRKSSTPQKFVGEKLMRFSYPDIHFDMNLTYEKEAELMQSHMMDQAINNAITYLGAEALHPLMQHPPSTIAEVAPVISSAYSQVYHPNRIERPISRETADSHENNMDGPISLIRPKSRPQEREASPSNSCLDSTDSESSHDDHQSYQGHPALNPKRKQSPAYMKEDVKALDTTKAPKGSLKDIYKVFNGEGEQIRAFKCEHCRVLFLDHVMYTIHMGCHGYRDPLECNICGYRSQDRYEFSSHIVRGEHTFH
B13: HDAC8 (protein, UniProt Q9BY41 1-377, looked up)
Histone deacetylase 8: MEEPEEPADSGQSLVPVYIYSPEYVSMCDSLAKIPKRASMVHSLIEAYALHKQMRIVKPKVASMEEMATFHTDAYLQHLQKVSQEGDDDHPDSIEYGLGYDCPATEGIFDYAAAIGGATITAAQCLIDGMCKVAINWSGGWHHAKKDEASGFCYLNDAVLGILRLRRKFERILYVDLDLHHGDGVEDAFSFTSKVMTVSLHKFSPGFFPGTGDVSDVGLGKGRYYSVNVPIQDGIQDEKYYQICESVLKEVYQAFNPKAVVLQLGADTIAGDPMCSFNMTPVGIGKCLKYILQWQLATLILGGGGYNLANTARCWTYLTGVILGKTLSSEIPDHEFFTAYGPDYVLEITPSCRPDRNEPHRIQQILNYIKGNLKHVV

Tested on: HEK293FT cells transfected with TF library
Test: Screening of TF condensates based on fluorescent puncta
Assay type: cell-based
Details: Figure 1B numerical data; TF library screen, one value per transcriptional factor
Summary of the method: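 Puncta scoring used automated confocal imaging of fifty random fields per well, after anti-Flag or anti-GAL4 immunofluorescence (Alexa 488) in PFA-fixed cells. HEK293FT cells carried TF library plasmids delivered with PEI (1.6 μg/ml DNA). At 60 h they were switched for 12 h to glucose-containing or glucose-free medium.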

Going from B1 to B2, the “Z score of condensed fraction” value rises from -0.874 to -0.8248.

Going from B3 to B4, the “Z score of condensed fraction” value rises from -1.103 to 2.844.

Going from B5 to B6, the “Z score of condensed fraction” value falls from -0.4669 to -0.5047.

Compared with B7, B8 is lower in “Z score of condensed fraction” value: 0.2732 for the first, -0.9865 for the second.

First: B9
Second: B10
The “Z score of condensed fraction” value of the first is higher: -0.3888 for the first, -1.172 for the second.

Going from B11 to B12, the “Z score of condensed fraction” value falls from 0.02684 to -0.5188.

For B13, the “Z score of condensed fraction” value was 0.9737.
